Results: patent US20230399394A1 (SUNSHINE GUOJIAN PHARMACEUTICAL SHANGHAI, published 2023)
Numbering of substitutions follows the chain as printed. Values belong to the binder of their own block, whether it stands above or below them.

What was measured:
Human IL-33-his = target: T1, Human IL-33-his (human, UniProt O95760 112-270, biotinylated with EZ-Link NHS-Biotin where used as IL-33-his-biotin); test: cell-based or functional assay
T1 sequence: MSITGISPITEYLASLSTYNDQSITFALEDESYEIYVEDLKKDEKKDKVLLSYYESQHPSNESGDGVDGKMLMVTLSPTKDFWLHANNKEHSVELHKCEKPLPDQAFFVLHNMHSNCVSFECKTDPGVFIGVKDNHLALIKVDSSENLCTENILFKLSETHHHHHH

[1] = target: T2, IL-33 mutant protein D68A (human, UniProt O95760 112-270); test: ELISA as Example 9; row D68A
T2 construct: Prokaryotic expression
T2 chain: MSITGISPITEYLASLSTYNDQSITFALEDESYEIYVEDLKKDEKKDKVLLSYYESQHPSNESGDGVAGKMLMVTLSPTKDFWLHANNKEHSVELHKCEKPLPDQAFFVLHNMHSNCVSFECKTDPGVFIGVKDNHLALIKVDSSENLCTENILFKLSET
Experimental: (§1) SA protein was diluted to 2 μg/mL to coat ELISA plate at 100 μL/well overnight at 4° C. The plate was washed with PBST (PBS containing 0.05% Tween20) for 3 times, and blocked with 2% BSA prepared in PBS at 200 μL/well, at room temperature for 2 h. After the plate was washed twice with PBST, IL-33-his-biotin protein was diluted to 1 μg/mL with 1% BSA prepared in PBST, and was added to ELISA plate at 100 μL/well. The plate was incubated at room temperature for 1 h, and each monoclonal antibody was diluted with 1% BSA prepared in PBST in a 3-fold gradient. The highest concentration of antibody was 10 μg/mL, and the antibody was diluted for 12 gradients. Each diluted monoclonal antibody was added to ELISA wells with 100 μL/well, and the plate was incubated at room temperature for 1 h. Each sample was added to duplicate wells in parallel. The plate was washed with PBST for 3 times, and HRP-anti human IgG Fc secondary antibody prepared with PBST was diluted at an appropriate ratio, and was added to ELISA wells at 100 μL/well. […] Each reaction solution was shaken uniformly and OD450 nm was read on a microplate reader. The data was analyzed and EC₅₀ was calculated.
(§2) Subsequently, according to the experimental method of Example 9, the affinity of the above mutant proteins to 874F7-Hu1 was determined, and IL-33 proteins (WT-1, WT-2, WT-3, and WT-4) without any mutation were set as controls.

[2] = target: T3, IL-33 mutant protein E62A (human, UniProt O95760 112-270); test: ELISA as Example 9; row E62A
T3 construct: Prokaryotic expression
T3 chain: T2 chain with E62A, A68D
Experimental: as §1, §2

[3] = target: T4, IL-33 protein without any mutation (WT) (human, UniProt O95760 112-270); test: ELISA as Example 9; row WT-2
T4 construct: Control of the alanine scan (four runs WT-1 to WT-4); also called WT-1; WT-2
T4 sequence: T2 chain with A68D
Experimental: as §1, §2

[4] = target: T4, IL-33 protein without any mutation (WT); test: ELISA as Example 9; row WT-4
Experimental: as §1, §2

[5] = target: T5, IL-33 mutant protein E44A (human, UniProt O95760 112-270); test: ELISA as Example 9; row E44A against WT-1
T5 construct: Prokaryotic expression
T5 chain: T2 chain with E44A, A68D
Experimental: as §1, §2

[6] = target: T6, IL-33 mutant protein E55A (human, UniProt O95760 112-270); test: ELISA as Example 9; row E55A against WT-2
T6 construct: Prokaryotic expression
T6 chain: T2 chain with E55A, A68D
Experimental: as §1, §2

[7] = target: T7, IL-33 mutant protein S60A (human, UniProt O95760 112-270); test: ELISA as Example 9; row S60A against WT-1
T7 construct: Prokaryotic expression; also called 560A
T7 chain: T2 chain with S60A, A68D
Experimental: as §1, §2

[8] = target: T8, IL-33 mutant protein Y53A (human, UniProt O95760 112-270); test: ELISA as Example 9; row Y53A against WT-2
T8 construct: Prokaryotic expression
T8 chain: T2 chain with Y53A, A68D
Experimental: as §1, §2

[9] = target: T4, IL-33 protein without any mutation (WT); test: ELISA as Example 9; row WT-2, the reference itself
Experimental: as §1, §2

[10] = target: T7, IL-33 mutant protein S60A; test: ELISA by the method of Example 9 with the IL-33 mutant protein on the plate, 874F7-Hu1 in serial dilution, HRP anti-human IgG Fc, absorbance 450 nm

IC50 of inhibition of IL-33-induced IL-6 expression in HUVEC cells (Human IL-33-his): 0.65 nM
IC50 of inhibition of IL-33-induced IL-8 expression in HUVEC cells (Human IL-33-his): 0.35 nM
B1: 874F7 (antibody, V domains shown)
VH: QVQLKESGPGLVAPSHSLSITCNVSGFSLSKYGVHWIRQIPGRGLDWLGVLRAGGSTGYNSALMSRLSISKDSSKSQVFLKMNDLRTDDTAVYFCVRDHYYYSSYGGFVYWGQGTLVTVSA
VL: DIQMTQSPASQSASLGESVTITCLASQTIGAWLAWYRQQPGKSPQLLIYAATRLADGVPSRFSGSGSGTEFSFKINNLQAEDFVSYYCQQLDSSPYTFGGGTRLEM
notes: Murine hybridoma antibody purified on Protein G; also called murine antibody 874F7

IC50 of inhibition of IFNγ secretion by NK cells induced by IL-33 (Human IL-33-his): 0.742 nM
IC50 of inhibition of IL-5 secretion of KU812 cells induced by IL-33 (Human IL-33-his): 7.83 nM
IC50 of inhibition of IL-13 secretion of KU812 cells induced by IL-33 (Human IL-33-his): 5.22 nM
IC50 of the inhibitory effect on IL-6 expression in HUVEC cells induced by IL-33 (Human IL-33-his): 0.051 nM
IC50 of the inhibitory effect on the IFN-γ secretion of PBMC induced by IL-33 (Human IL-33-his): 0.85 nM
EC50 [1]: 0.22 nM
EC50 [2]: 0.15 nM
EC50 [3]: 0.13 nM
EC50 [4]: 0.12 nM
Affinity decline ratio [5]: 0.6 fold
Affinity decline ratio [6]: 2.5 fold
Affinity decline ratio [7]: 23.2 fold
Affinity decline ratio [8]: 3.3 fold
Affinity decline ratio [9]: 1 fold
EC50 (read off the curve) [10]: ~1 nM
B2: 874F7-Hu1 (antibody, human IgG4 S228P, kappa)
heavy: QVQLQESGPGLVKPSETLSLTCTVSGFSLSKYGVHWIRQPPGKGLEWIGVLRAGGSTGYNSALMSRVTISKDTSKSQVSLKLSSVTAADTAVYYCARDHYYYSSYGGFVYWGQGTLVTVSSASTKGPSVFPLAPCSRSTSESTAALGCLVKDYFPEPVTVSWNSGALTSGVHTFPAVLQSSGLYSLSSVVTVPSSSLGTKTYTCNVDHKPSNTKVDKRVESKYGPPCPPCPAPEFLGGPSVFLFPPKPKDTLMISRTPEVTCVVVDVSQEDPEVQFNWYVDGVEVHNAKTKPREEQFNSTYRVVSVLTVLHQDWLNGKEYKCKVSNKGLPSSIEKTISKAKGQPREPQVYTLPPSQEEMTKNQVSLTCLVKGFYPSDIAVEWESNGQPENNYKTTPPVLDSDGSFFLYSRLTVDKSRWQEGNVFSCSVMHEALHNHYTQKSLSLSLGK
light: DIQMTQSPSSVSASVGDRVTITCLASQTIGAWLAWYQQKPGKSPKLLIYAATRLADGVPSRFSGSGSGTDFTLTISSLQPEDFATYYCQQLDSSPYTFGQGTKVEIKRTVAAPSVFIFPPSDEQLKSGTASVVCLLNNFYPREAKVQWKVDNALQSGNSQESVTEQDSKDSTYSLSSTLTLSKADYEKHKVYACEVTHQGLSSPVTKSFNRGEC
notes: also called 874F7-Hul; humanized antibody 874F7-Hu1
